Changes are numbered by the printed parent chain.
B1: SUR-FL-29 Fab (Fab, V domains shown)
VH: EVQLVESGGGLVQPGGSLRLSCAASGFNVSYYSIHWVRQAPGKGLEWVASIYPYYGSTSYADSVKGRFTISADTSKNTAYLQMNSLRAEDTAVYYCARWQFYGYYHGLYFTDLGIDYWGQGTLVTVSS
VL: DIQMTQSPSSLSASVGDRVTITCRASQSVSSAVAWYQQKPGKAPKLLIYSASSLYSGVPSRFSGSRSGTDFTLTISSLQPEDFATYYCQQSGGFPITFGQGTKVEIKR
B2: SUR-N-36 Fab (Fab, V domains shown)
VH: EVQLVESGGGLVQPGGSLRLSCAASGFNVSYSSIHWVRQAPGKGLEWVASIYPYYGYTSYADSVKGRFTISADTSKNTAYLQMNSLRAEDTAVYYCAREEYSTVQYWYYYWYPGMDYWGQGTLVTVSS
VL: B1 VL with S91Y, G92M, G93Y, F94S
B3: SUR-N-40 Fab (Fab, V domains shown)
VH: EVQLVESGGGLVQPGGSLRLSCAASGFNFSSSSIHWVRQAPGKGLEWVAYIYPSYGYTSYADSVKGRFTISADTSKNTAYLQMNSLRAEDTAVYYCARSLYSKMWYYGSYYFYQVGLDYWGQGTLVTVSS
VL: B1 VL with S91G, G92Y, G93K, F94Y, P95L, I96V
B4: SUR-N-07 (Fab, V domains shown)
VH: EVQLVESGGGLVQPGGSLRLSCAASGFNFSSSSIHWVRQAPGKGLEWVASISPYSGYTYYADSVKGRFTISADTSKNTAYLQMNSLRAEDTAVYYCARWYWAYPYWWYAMDYWGQGTLVTVSS
VL: B1 VL with G92W, F94P, I96V
notes: also called SUR-N-07 Fab
B5: SUR-FL-52 (Fab, V domains shown)
VH: B4 VH with S52Y, Y57S, Y100D, W101F, A102G, P104Y, W107Y, Y108S, M110I
VL: B1 VL with S91Y, G92W, G93Y, F94T, P95L
notes: also called SUR-FL-52 Fab
B6: SUR-FL-27 (Fab, V domains shown)
VH: EVQLVESGGGLVQPGGSLRLSCAASGFNVYSSYIHWVRQAPGKGLEWVASIYPSSGYTYYADSVKGRFTISADTSKNTAYLQMNSLRAEDTAVYYCARMSYYSWYYHSVYMYGLDYWGQGTLVTVSS
VL: DIQMTQSPSSLSASVGDRVTITCRASQSVSSAVAWYQQKPGKAPKLLIYSASSLYSGVPSRFSGSRSGTDFTLTISSLQPEDFATYYCQQASSDHSLITFGQGTKVEIKR
notes: also called SUR-FL-27 Fab
B7: SUR-N-53 (Fab, V domains shown)
VH: EVQLVESGGGLVQPGGSLRLSCAASGFNVSSSYIHWVRQAPGKGLEWVASIYSYYGSTSYADSVKGRFTISADTSKNTAYLQMNSLRAEDTAVYYCARSFTEKWAYSWAIDYWGQGTLVTVSS
VL: B1 VL with S91Y, G92A, G93W, F94S, P95L, I96F
notes: also called SUR-N-53 Fab
B8: SUR-FL-47 (Fab, V domains shown)
VH: EVQLVESGGGLVQPGGSLRLSCAASGFNVSYSSIHWVRQAPGKGLEWVASIYSYYGYTSYADSVKGRFTISADTSKNTAYLQMNSLRAEDTAVYYCARWPHYWGQGVSSMDYWGQGTLVTVSS
VL: B1 VL with G92Y, G93Y, I96V
notes: also called SUR-FL-47 Fab
B9: SUR-FL-23 (Fab, V domains shown)
VH: EVQLVESGGGLVQPGGSLRLSCAASGFNFSSSSIHWVRQAPGKGLEWVASISSYSSSTSYADSVKGRFTISADTSKNTAYLQMNSLRAEDTAVYYCARYMVSMWSYSWYVKWYAMDYWGQGTLVTVSS
VL: B1 VL with G92S, G93S, F94S, P95L
notes: also called SUR-FL-23 Fab
B10: SUR-FL-31 (Fab, V domains shown)
VH: EVQLVESGGGLVQPGGSLRLSCAASGFNFSSSSIHWVRQAPGKGLEWVASISSYSGYTYYADSVKGRFTISADTSKNTAYLQMNSLRAEDTAVYYCARGKQKSYGQWYFYYWAIDYWGQGTLVTVSS
VL: B1 VL with G92S, G93S, F94S, P95L
notes: also called SUR-FL-31 Fab
B11: SUR-FL-25 (Fab, V domains shown)
VH: EVQLVESGGGLVQPGGSLRLSCAASGFNVYSSSIHWVRQAPGKGLEWVASIYPYYSYTSYADSVKGRFTISADTSKNTAYLQMNSLRAEDTAVYYCARWKKSRSGGMWGMDYWGQGTLVTVSS
VL: B1 VL with S91Y, G92S, G93S
notes: also called SUR-FL-25 Fab
B12: SUR-FL-24 (Fab, V domains shown)
VH: EVQLVESGGGLVQPGGSLRLSCAASGFNFYSSSIHWVRQAPGKGLEWVASIYPYYSSTSYADSVKGRFTISADTSKNTAYLQMNSLRAEDTAVYYCARWYHYYSVQQYGLDYWGQGTLVTVSS
VL: B1 VL with G92T, G93S
notes: also called SUR-FL-24 Fab
B13: SUR-N-28 (Fab, V domains shown)
VH: EVQLVESGGGLVQPGGSLRLSCAASGFNFSSSYIHWVRQAPGKGLEWVASIYSSYGYTSYADSVKGRFTISADTSKNTAYLQMNSLRAEDTAVYYCARSYYYQYSGGWRGYYHALDYWGQGTLVTVSS
VL: B1 VL with G92S, G93S, F94S, P95L
notes: also called SUR-N-28 Fab
B14: SUR-FL-26 (Fab, V domains shown)
VH: B4 VH with F29V, S31Y, S55Y, W101F, A102E, W106Y, W107M, Y108W, A109G, M110L
VL: B1 VL with G92Y, G93K, F94P
notes: also called SUR-FL-26 Fab
B15: SUR-N-09 (Fab, V domains shown)
VH: EVQLVESGGGLVQPGGSLRLSCAASGFNFYYSSIHWVRQAPGKGLEWVASISPYSGYTSYADSVKGRFTISADTSKNTAYLQMNSLRAEDTAVYYCARYMYYGWALDYWGQGTLVTVSS
VL: DIQMTQSPSSLSASVGDRVTITCRASQSVSSAVAWYQQKPGKAPKLLIYSASSLYSGVPSRFSGSRSGTDFTLTISSLQPEDFATYYCQQGQWWGLITFGQGTKVEIKR
notes: also called SUR-N-09 Fab
B16: SUR-FL-22 (Fab, V domains shown)
VH: EVQLVESGGGLVQPGGSLRLSCAASGFNFYSSYIHWVRQAPGKGLEWVASIYSYSSSTSYADSVKGRFTISADTSKNTAYLQMNSLRAEDTAVYYCARAGWYWYYGIQFAFDYWGQGTLVTVSS
VL: B15 VL with G91Q, Q92R, W93Y, W94G, G95S
notes: also called SUR-FL-22 Fab

The binders below were run against T1, Survivin of murine tumor cells (CT-26, MC-38) (mouse, UniProt O70201) (assay: flow cytometry of live murine colon tumor cells, 200 nM Fab, anti-human F(ab')2-A647 secondary).
T1 construct: also called murine survivin
Method: (§1) Human or murine tumor cells were trypsinized, washed and resuspended in Flow buffer (1×PBS supplemented with 2% FBS) and added to a 96-well plate (#3799, Costar). 200 nM primary CPC Fab was mixed with 0.5M cells and incubated at 37 C for 20 min. […] Samples were analyzed by flow cytometry using CytoFLEX (Beckman Coulter) and mean fluorescence intensity (MFI) data was extracted using the FlowJo software (FIG. 5A-E, FIG. 6). Human peripheral blood mononuclear cells (PBMCs) derived from a single patient were used as a source of healthy human cells. PBMCs were counted, split and spun down 400×g 5 min. Cells were resuspended in Flow buffer (1×PBS supplemented with 2% FBS) and pre-incubated with TruStain FcX (1:20, Biolegend 422302) for 10 min at 37 C, followed by 200 nM primary Fab incubation at 37 for 20 min. […] Mean fluorescence intensity (MFI) data was extracted using the FlowJo software (FIG. 5F).

T1 sequence (O70201 whole entry): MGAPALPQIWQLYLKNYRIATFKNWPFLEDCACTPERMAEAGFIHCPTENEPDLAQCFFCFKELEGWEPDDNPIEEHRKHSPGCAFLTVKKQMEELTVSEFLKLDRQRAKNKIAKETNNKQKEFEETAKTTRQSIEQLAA

Does B1 bind?
Result: binds

Does B2 bind?
Result: binds

Does B3 bind?
Result: binds

What follows are binders tested against T2, Survivin (purified recombinant Survivin protein) (human, UniProt O15392 1-140, limits assumed, biotinylated on the Avi-tag by BirA (antigens for selection and ELISA)) (assay: SPR: target immobilised on NTA chip by His-tag, 2-fold serial dilutions of Fab, 1:1 Langmuir fit).
T2 construct: also called Baculoviral IAP repeat-containing protein 5; BIRC5
Method: The targets were immobilized onto a nitrilotriacetic acid (NTA) sensor chip via His-tag. 2-fold serial dilutions of the Fab were injected following ligand immobilization on the sensor chip. For each kinetic assay at least five dilutions of the Fab were tested. The data were fitted using 1:1 Langmuir Model to obtain the on-rate, off-rate and the affinity (KD) of the Fab-target interaction. (FIG. 4).

T2 sequence (O15392 1-140 limits assumed): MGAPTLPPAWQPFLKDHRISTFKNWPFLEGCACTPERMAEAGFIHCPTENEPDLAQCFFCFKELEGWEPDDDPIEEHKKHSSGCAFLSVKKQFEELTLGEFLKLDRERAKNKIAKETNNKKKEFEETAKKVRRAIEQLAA

For B2, which Kd is on record?
The Kd was 4.2 nM.

With B3 as the binder, how does the Kd read?
The Kd was 2.1 nM.

The binders below were run against T3, cell surface survivin on cancer cells (human, UniProt O15392 1-142) (assay: flow cytometry of live cells, 200 nM Fab, anti-human F(ab')2-A647 secondary).
T3 construct: whole, on cells
Method: as §1

T3 sequence (O15392 whole entry): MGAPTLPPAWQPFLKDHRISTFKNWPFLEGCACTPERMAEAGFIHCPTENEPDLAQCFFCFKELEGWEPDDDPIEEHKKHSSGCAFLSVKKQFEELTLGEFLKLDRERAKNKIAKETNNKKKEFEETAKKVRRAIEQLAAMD

Does B4 bind?
Result: binds

Does B1 bind?
Result: binds

Does B5 bind?
Result: binds

Does B6 bind?
Result: binds

Each binder was assayed against T2, Survivin (purified recombinant Survivin …) (assay: multipoint protein ELISA: 50 nM immobilised target, 3-fold serial dilutions of purified Fab, protein L-HRP, sigmoidal fit).
Method: Protein based multipoint ELISA was performed to estimate the affinity of the generated unique Fabs to their cognate antigens. A fixed concentration of the immobilized target (50 nM) on ELISA plate was incubated with 3-fold serial dilutions of the purified Fabs starting from […] for 15 min. The plates were washed and the bound antigen-Fab complexes were incubated with H1RP-conjugated protein L (1:5000 dilution in PBST). As with phage ELISA, the plates were again washed, developed with TMB substrate and quenched with 1.0 M HCl, and absorbance (A450) was determined. To determine the affinity, the data were fitted in a non-linear sigmoidal function with variable slope in GraphPad PRISM and EC50 value was calculated (FIG. 2).

For B7, which EC50 is on record?
Its EC50 is 100 nM.

How did the EC50 turn out when B8 was run?
The EC50 was 29 nM.

Which EC50 does the source give for B9 here?
Its EC50 is 1 nM.

For B10, which EC50 is on record?
Its EC50 is 2 nM.

Which EC50 does the source give for B2 here?
The EC50 was 2 nM.

How did the EC50 turn out when B11 was run?
The EC50 was 10 nM.

How did the EC50 turn out when B12 was run?
Its EC50 is 18 nM.

For B3, which EC50 is on record?
The EC50 was less than 1 nM.

How did the EC50 turn out when B13 was run?
Its EC50 is 3 nM.

For B14, which EC50 is on record?
Its EC50 is less than 1 nM.

How did the EC50 turn out when B15 was run?
The EC50 was 30 nM.

With B16 as the binder, how does the EC50 read?
Its EC50 is 3 nM.
